Substitutions are numbered along the chain they refer to.
B1: bIgG1a mAb (antibody, part only; not given: variable domains, not shown: another chain or arm of the molecule)
constant: ASTTAPKVYPLSSCCGDKSSSTVTLGCLVSSYMPEPVTVTWNSGALKSGVHTFPAVLQSSGLYSLSSMVTVPGSTSGTQTFTCNVAHPASSTKVDKAVDPRCKTTCDCCPPPELPGGPSVFIFPPKPKDTLTISGTPEVTCVVVDVGHDDPEVKFSWFVDDVEVNTATTKPREEQFNSTYRVVSALRIQHQDWTGGKEFKCKVHNEGLPAPIVRTISRTKGPAREPQVYVLAPPQEELSKSTVSLTCMVTSFYPDYIAVEWQRNGQPESEDKYGTTPPQLDADGSYFLYSRLRVDRNSWQEGDTYTCVVMHEALHNHYTQKSTSKSAGK
B2: bIgG2a_L432A mAb (antibody, part only; not given: variable domains, not shown: another chain or arm of the molecule)
constant: ASTTAPKVYPLTSCCGDKSSSRVTLGCLVSSYMPEPVTVTWNSGALKSGVHTFPAVLQSSGLYSLSSMVTVPGSSSGQTFTCNVAHPASSTKVDKAVGVSSDCSKPNNQHCVREPSVFIFPPKPKDTLMITGTPEVTCVVVNVGHDNPEVQFSWFVDDVEVHTARTKPREEQFNSTYRVVSALPIQHQDWTGGKEFKCKVNIKGLSASIVRIISRSKGPAREPQVYVLDPPKEELSKSTVSVTCMVIGFYPEDVDVEWQRDRQTESEDKYRTTPPQLDADRSYFLYSKLRVDRNSWQRGDTYTCVVMHEAAHNHYMQKSTSKSAGK
B3: bIgG2a_L432A_N434A mAb (antibody, part only; not given: variable domains, not shown: another chain or arm of the molecule)
constant: B2 constant with N313A
B4: bIgG2a_L432A_M437A mAb (antibody, part only; not given: variable domains, not shown: another chain or arm of the molecule)
constant: B2 constant with M316A
B5: bIgG2a_L432A_N434A_M437A mAb (antibody, part only; not given: variable domains, not shown: another chain or arm of the molecule)
constant: B2 constant with N313A, M316A
B6: bIgG2a_N434A_M437A mAb (antibody, part only; not given: variable domains, not shown: another chain or arm of the molecule)
constant: B2 constant with A311L, N313A, M316A
B7: bIgG2a_M437A mAb (antibody, part only; not given: variable domains, not shown: another chain or arm of the molecule)
constant: B2 constant with A311L, M316A
B8: bIgG2a_N434A mAb (antibody, part only; not given: variable domains, not shown: another chain or arm of the molecule)
constant: B2 constant with A311L, N313A
B9: bIgG3a wildtype mAb (antibody, part only; not given: variable domains, not shown: another chain or arm of the molecule)
constant: ASTTAPKVYPLASSCGDTSSSTVTLGCLVSSYMPEPVTVTWNSGALKSGVHTFPAVRQSSGLYSLSSMVTVPASSSETQTFTCNVAHPASSTKVDKAVTARRPVPTTPKTTIPPGKPTTPKSEVEKTPCQCSKCPEPLGGLSVFIFPPKPKDTLTISGTPEVTCVVVDVGQDDPEVQFSWFVDDVEVHTARTKPREEQFNSTYRVVSALRIQHQDWLQGKEFKCKVNNKGLPAPIVRTISRTKGQAREPQVYVLAPPREELSKSTLSLTCLITGFYPEEIDVEWQRNGQPESEDKYHTTAPQLDADGSYFLYSKLRVNKSSWQEGDHYTCAVMHEALRNHYKEKSISRSPGK
B10: bIgG3a_R433H mutant mAb (antibody, part only; not given: variable domains, not shown: another chain or arm of the molecule)
constant: B9 constant with R338H

Each binder was assayed against recombinant bovine FcRn (bovine) (UniProt F6R592) (assay: SPR Biacore, bFcRn on SA sensor, pH 6, 25 C).
Chain of recombinant bovine FcRn (bovine) (chain, as listed by the source, chain 1 of 2): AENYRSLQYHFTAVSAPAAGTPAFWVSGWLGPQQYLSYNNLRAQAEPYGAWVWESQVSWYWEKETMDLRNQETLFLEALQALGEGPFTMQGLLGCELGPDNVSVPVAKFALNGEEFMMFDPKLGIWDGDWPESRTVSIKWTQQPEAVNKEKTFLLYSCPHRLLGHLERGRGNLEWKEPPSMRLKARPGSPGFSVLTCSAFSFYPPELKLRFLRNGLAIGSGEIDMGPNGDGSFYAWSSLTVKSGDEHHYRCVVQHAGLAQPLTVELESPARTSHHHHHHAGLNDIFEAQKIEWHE
Chain of recombinant bovine FcRn (bovine) (P01888 21-118, chain 2 of 2): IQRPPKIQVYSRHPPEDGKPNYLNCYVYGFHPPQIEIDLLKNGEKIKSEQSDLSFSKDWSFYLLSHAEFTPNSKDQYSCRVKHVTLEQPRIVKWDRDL

Kd [nM]	Binder
31.4	B1
0.579	B2
1.7	B3
3.03	B4
6.96	B5
2.31	B6
0.59	B7
1.04	B8
30.2	B9
9.14	B10

What follows are binders tested against recombinant bovine Fcg2R (bovine) (assay: SPR Biacore, bFcg2R amine-coupled on CM5, pH 7.4, 15 C).
Chain of recombinant bovine Fcg2R (bovine) (main, as listed by the source): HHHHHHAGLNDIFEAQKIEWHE

Kd [nM]	Binder
59.3	B3

These binders were tested against recombinant bovine FcRn (bovine) (UniProt F6R592) (assay: SPR Biacore, bFcRn, pH 6; against bIgG3a wildtype mAb).

fold higher affinity than bIgG3a wildtype [fold]	Binder
5	B10

These binders were tested against recombinant bovine Fcg2R (bovine) (assay: SPR Biacore, bFcg2R amine-coupled on CM5; against bIgG2a wildtype mAb).

Fcg2R KD reduction from WT [fold]	Binder
4	B3
